In patent US10202610B2, “Recombinant K1-5 bacteriophages and uses thereof” (priority 2017, dated 2019):

B1: sgRNAs 86+89: pair of single guide RNAs, SEQ ID NO: 16 and 17, targeting the K1-5 phage genome with Cas9 (nucleic acid)
guide 1: ACUAAAUGAGGAUUAAAUCAGUUUUAGAGCUAGAAAUAGCAAGUUAAAAUAAGGCUAGUCCGUUAUCAACUUGAAAAAGUGGCACCGAGUCGGUGCUUUUUUU
guide 2: UUACUCUGAUGCACUACAUGGUUUUAGAGCUAGAAAUAGCAAGUUAAAAUAAGGCUAGUCCGUUAUCAACUUGAAAAAGUGGCACCGAGUCGGUGCUUUUUUU
modifications: further chemistry not given here
B2: sgRNAs 1112+1122: pair of single guide RNAs, SEQ ID NO: 18 and 19, targeting the K1-5 phage genome with Cas9 (nucleic acid)
guide 1: UAUAUUAUACCAGAGAGGCGGUUUUAGAGCUAGAAAUAGCAAGUUAAAAUAAGGCUAGUCCGUUAUCAACUUGAAAAAGUGGCACCGAGUCGGUGCUUUUUUU
guide 2: GAAGUUCUAAGGAGAUAACAGUUUUAGAGCUAGAAAUAGCAAGUUAAAAUAAGGCUAGUCCGUUAUCAACUUGAAAAAGUGGCACCGAGUCGGUGCUUUUUUU
modifications: further chemistry not given here

Tested on: K1-5 phage
Assay: Plaquing efficiency of K1-5 phage on K1 E. coli strains with inducible CRISPR-Cas9 and sgRNAs targeting the phage genome
Format: cell-based, K1-5 bacteriophage
Conditions: K1-5 phage plated on strains expressing the sgRNAs, in the absence of homology for repair
Protocol: K1 E. coli strains were generated for cleaving and recombining at locations specified by either sgRNAs 86+89 or sgRNAs 1112+1122. Cells were maintained with 50 μg/mL kanamycin (for the CRISPR expression vector) and 10 μg/mL gentamicin (for the recombination expression vector). Cells were grown while shaking at 37° C. to OD600˜0.6 and were then subjected to various induction treatments. Cultures were either (1) not induced, (2) induced with 100 ng/mL anhydrotetracycline (aTc) to activate Cas9 expression, (3) induced with 0.2% arabinose to activate lambda red operon expression, or (4) induced with both 100 ng/mL anhydrotetracycline and 0.2% arabinose to activate expression of Cas9 and lambda red genes. Induction was carried out for 2 hours while shaking at 37° C.
K1-5 lysate was then used to infect 200 μL cultures of each bacterial strain/induction condition at 10^6, 10^4, and 10^2 PFU. This infection was given 10 minutes for the phage to adsorb before being added to 3 mL of 0.65% LB top agar. The appropriate inducer was spiked into each top agar tube to maintain induction. The top agar was then spread over an LB agar plate containing the appropriate antibiotics to maintain the CRISPR and recombination expression vectors. The agar plates were incubated in an airtight container for approximately 16 hours at 37° C. […]

Molecule | reduction in plaquing efficiency
B1 | ~1.9×10^6 fold
B2 | 2105 fold
